# Measurements reported in PMC12416549 (2024).
# T1: TNFR1 (Homo sapiens, UniProt P19438)
# T1 chain: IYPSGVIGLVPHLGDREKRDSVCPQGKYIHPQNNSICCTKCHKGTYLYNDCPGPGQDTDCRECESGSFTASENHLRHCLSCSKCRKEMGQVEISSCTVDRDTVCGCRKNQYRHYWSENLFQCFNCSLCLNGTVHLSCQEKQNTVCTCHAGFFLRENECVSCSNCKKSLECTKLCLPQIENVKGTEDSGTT
# Molecular target: T1, TNFR1
# Assay: yeast display SC50
row,apparent Kd (screen) [pM],Binder
1,6430,E91R (designed binder) SMEEEVEKAAKEYEKKKKEAIEKHLEKLKAKDKEAAERFLKELEEAAKEYAKDEAKTMSEEEAKRRAKKYKEKVLLSELSEEEQKEIKEAREKLVRTILKYVEEAAK
2,790,H24Q (designed binder) SMEEEVEKAAKEYEKKKKEAIEKQLEKLKAKDKEAAERFLKELEEAAKEYAKDEAKTMSEEEAKRRAKKYKEKVLLSELSEEEQKEIKEAEEKLVRTILKYVEEAAK
3,490,K11Y (designed binder) SMEEEVEKAAYEYEKKKKEAIEKHLEKLKAKDKEAAERFLKELEEAAKEYAKDEAKTMSEEEAKRRAKKYKEKVLLSELSEEEQKEIKEAEEKLVRTILKYVEEAAK
4,446,Y13F (designed binder) SMEEEVEKAAKEFEKKKKEAIEKHLEKLKAKDKEAAERFLKELEEAAKEYAKDEAKTMSEEEAKRRAKKYKEKVLLSELSEEEQKEIKEAEEKLVRTILKYVEEAAK
5,539,K8F (designed binder) SMEEEVEFAAKEYEKKKKEAIEKHLEKLKAKDKEAAERFLKELEEAAKEYAKDEAKTMSEEEAKRRAKKYKEKVLLSELSEEEQKEIKEAEEKLVRTILKYVEEAAK
6,653,I21A (designed binder) SMEEEVEKAAKEYEKKKKEAAEKHLEKLKAKDKEAAERFLKELEEAAKEYAKDEAKTMSEEEAKRRAKKYKEKVLLSELSEEEQKEIKEAEEKLVRTILKYVEEAAK
7,490,M2K (designed binder) SKEEEVEKAAKEYEKKKKEAIEKHLEKLKAKDKEAAERFLKELEEAAKEYAKDEAKTMSEEEAKRRAKKYKEKVLLSELSEEEQKEIKEAEEKLVRTILKYVEEAAK
8,1540,E19Y (designed binder) SMEEEVEKAAKEYEKKKKYAIEKHLEKLKAKDKEAAERFLKELEEAAKEYAKDEAKTMSEEEAKRRAKKYKEKVLLSELSEEEQKEIKEAEEKLVRTILKYVEEAAK
9,1860,L79C (designed binder) SMEEEVEKAAKEYEKKKKEAIEKHLEKLKAKDKEAAERFLKELEEAAKEYAKDEAKTMSEEEAKRRAKKYKEKVLLSECSEEEQKEIKEAEEKLVRTILKYVEEAAK
10,1860,L75Y (designed binder) SMEEEVEKAAKEYEKKKKEAIEKHLEKLKAKDKEAAERFLKELEEAAKEYAKDEAKTMSEEEAKRRAKKYKEKVYLSELSEEEQKEIKEAEEKLVRTILKYVEEAAK
11,446,K64Y (designed binder) SMEEEVEKAAKEYEKKKKEAIEKHLEKLKAKDKEAAERFLKELEEAAKEYAKDEAKTMSEEEAYRRAKKYKEKVLLSELSEEEQKEIKEAEEKLVRTILKYVEEAAK
12,2730,E49T (designed binder) SMEEEVEKAAKEYEKKKKEAIEKHLEKLKAKDKEAAERFLKELEEAAKTYAKDEAKTMSEEEAKRRAKKYKEKVLLSELSEEEQKEIKEAEEKLVRTILKYVEEAAK
13,1400,K18Q (designed binder) SMEEEVEKAAKEYEKKKQEAIEKHLEKLKAKDKEAAERFLKELEEAAKEYAKDEAKTMSEEEAKRRAKKYKEKVLLSELSEEEQKEIKEAEEKLVRTILKYVEEAAK
14,446,E104V (designed binder) SMEEEVEKAAKEYEKKKKEAIEKHLEKLKAKDKEAAERFLKELEEAAKEYAKDEAKTMSEEEAKRRAKKYKEKVLLSELSEEEQKEIKEAEEKLVRTILKYVEVAAK
15,446,A9T (designed binder) SMEEEVEKTAKEYEKKKKEAIEKHLEKLKAKDKEAAERFLKELEEAAKEYAKDEAKTMSEEEAKRRAKKYKEKVLLSELSEEEQKEIKEAEEKLVRTILKYVEEAAK
16,869,K52G (designed binder) SMEEEVEKAAKEYEKKKKEAIEKHLEKLKAKDKEAAERFLKELEEAAKEYAGDEAKTMSEEEAKRRAKKYKEKVLLSELSEEEQKEIKEAEEKLVRTILKYVEEAAK

# The next lines start with the binder.
row,Binder,apparent Kd (screen) [pM]
1,K100I (designed binder) SMEEEVEKAAKEYEKKKKEAIEKHLEKLKAKDKEAAERFLKELEEAAKEYAKDEAKTMSEEEAKRRAKKYKEKVLLSELSEEEQKEIKEAEEKLVRTILIYVEEAAK,1400
2,L40T (designed binder) SMEEEVEKAAKEYEKKKKEAIEKHLEKLKAKDKEAAERFTKELEEAAKEYAKDEAKTMSEEEAKRRAKKYKEKVLLSELSEEEQKEIKEAEEKLVRTILKYVEEAAK,718
3,K93S (designed binder) SMEEEVEKAAKEYEKKKKEAIEKHLEKLKAKDKEAAERFLKELEEAAKEYAKDEAKTMSEEEAKRRAKKYKEKVLLSELSEEEQKEIKEAEESLVRTILKYVEEAAK,653
4,E92A (designed binder) SMEEEVEKAAKEYEKKKKEAIEKHLEKLKAKDKEAAERFLKELEEAAKEYAKDEAKTMSEEEAKRRAKKYKEKVLLSELSEEEQKEIKEAEAKLVRTILKYVEEAAK,12500
5,L25T (designed binder) SMEEEVEKAAKEYEKKKKEAIEKHTEKLKAKDKEAAERFLKELEEAAKEYAKDEAKTMSEEEAKRRAKKYKEKVLLSELSEEEQKEIKEAEEKLVRTILKYVEEAAK,1860
6,Q84S (designed binder) SMEEEVEKAAKEYEKKKKEAIEKHLEKLKAKDKEAAERFLKELEEAAKEYAKDEAKTMSEEEAKRRAKKYKEKVLLSELSEEESKEIKEAEEKLVRTILKYVEEAAK,11400
7,D53Y (designed binder) SMEEEVEKAAKEYEKKKKEAIEKHLEKLKAKDKEAAERFLKELEEAAKEYAKYEAKTMSEEEAKRRAKKYKEKVLLSELSEEEQKEIKEAEEKLVRTILKYVEEAAK,2730
8,E104P (designed binder) SMEEEVEKAAKEYEKKKKEAIEKHLEKLKAKDKEAAERFLKELEEAAKEYAKDEAKTMSEEEAKRRAKKYKEKVLLSELSEEEQKEIKEAEEKLVRTILKYVEPAAK,446
9,A35C (designed binder) SMEEEVEKAAKEYEKKKKEAIEKHLEKLKAKDKECAERFLKELEEAAKEYAKDEAKTMSEEEAKRRAKKYKEKVLLSELSEEEQKEIKEAEEKLVRTILKYVEEAAK,1690
10,K27S (designed binder) SMEEEVEKAAKEYEKKKKEAIEKHLESLKAKDKEAAERFLKELEEAAKEYAKDEAKTMSEEEAKRRAKKYKEKVLLSELSEEEQKEIKEAEEKLVRTILKYVEEAAK,869
11,K17T (designed binder) SMEEEVEKAAKEYEKKTKEAIEKHLEKLKAKDKEAAERFLKELEEAAKEYAKDEAKTMSEEEAKRRAKKYKEKVLLSELSEEEQKEIKEAEEKLVRTILKYVEEAAK,1050
12,E81W (designed binder) SMEEEVEKAAKEYEKKKKEAIEKHLEKLKAKDKEAAERFLKELEEAAKEYAKDEAKTMSEEEAKRRAKKYKEKVLLSELSWEEQKEIKEAEEKLVRTILKYVEEAAK,304
13,L28G (designed binder) SMEEEVEKAAKEYEKKKKEAIEKHLEKGKAKDKEAAERFLKELEEAAKEYAKDEAKTMSEEEAKRRAKKYKEKVLLSELSEEEQKEIKEAEEKLVRTILKYVEEAAK,1400
14,A105N (designed binder) SMEEEVEKAAKEYEKKKKEAIEKHLEKLKAKDKEAAERFLKELEEAAKEYAKDEAKTMSEEEAKRRAKKYKEKVLLSELSEEEQKEIKEAEEKLVRTILKYVEENAK,1860
15,K27V (designed binder) SMEEEVEKAAKEYEKKKKEAIEKHLEVLKAKDKEAAERFLKELEEAAKEYAKDEAKTMSEEEAKRRAKKYKEKVLLSELSEEEQKEIKEAEEKLVRTILKYVEEAAK,956
16,E82I (designed binder) SMEEEVEKAAKEYEKKKKEAIEKHLEKLKAKDKEAAERFLKELEEAAKEYAKDEAKTMSEEEAKRRAKKYKEKVLLSELSEIEQKEIKEAEEKLVRTILKYVEEAAK,490
17,D32C (designed binder) SMEEEVEKAAKEYEKKKKEAIEKHLEKLKAKCKEAAERFLKELEEAAKEYAKDEAKTMSEEEAKRRAKKYKEKVLLSELSEEEQKEIKEAEEKLVRTILKYVEEAAK,3000
18,M2R (designed binder) SREEEVEKAAKEYEKKKKEAIEKHLEKLKAKDKEAAERFLKELEEAAKEYAKDEAKTMSEEEAKRRAKKYKEKVLLSELSEEEQKEIKEAEEKLVRTILKYVEEAAK,539
19,L28H (designed binder) SMEEEVEKAAKEYEKKKKEAIEKHLEKHKAKDKEAAERFLKELEEAAKEYAKDEAKTMSEEEAKRRAKKYKEKVLLSELSEEEQKEIKEAEEKLVRTILKYVEEAAK,790
